1 molecule from patent publication US20230374161A1 (Stanford University, published 2023) can be followed below.

This assay deals with human NKG2A (human, UniProt P26715 94-233, limits assumed). The assay is described as follows: not stated; drawn table 'Binding affinity of anti-NKG2A scFv to human NKG2A', column 'Binding affinity, KD (M)'.
human NKG2A, sequence (P26715 94-233 limits assumed): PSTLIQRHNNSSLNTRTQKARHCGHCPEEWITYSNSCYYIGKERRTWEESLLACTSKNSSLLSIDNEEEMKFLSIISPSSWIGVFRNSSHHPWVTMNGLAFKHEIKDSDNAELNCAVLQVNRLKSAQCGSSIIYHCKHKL

B1: murine anti-NKG2A scFv (scFv)
scFv: QVQLQQPGAELVRPGASVKLSCKASGYTFTSYWMNWVKQRPEQGLQWIGRIDPYDSETHYSQKFKDKAILTVDKSSSTAYMRLSSLTSEDSAVYYCARGGYDFDVGTLYWFFDVWGAGTTVTVSSGGSTRSSSSGGGGSGGGGDIQMTQSPASLSASVGETVTITCRASENIYSYLAWYQQKQGKSPQFLVYNAKTLAEGVPSRFSGSGSGTQFSLKINSLQPEDFGSYYCQHHYGTPRTFGGGTKLEIKAAAHHHHHHHH
notes: Derived from the VH and VL of murine antibody Z270 (U.S. Pat. No. 9,683,041), expressed in Hi5 cells, purified on Ni-NTA; also called αNKG2A-scFv
With B1, the affinity, expressed as Kd, was 0.0665 nM. In other words, the picomolar range.

As usually defined, the Kd is the concentration at which binding is half-saturated. Higher therefore signals weaker binding.
